Measurements taken from article PMC3119658, “The Naturally Processed CD95L Elicits a c-Yes/Calcium/PI3K-Driven Cell Migration Pathway” (PLoS Biology, 2011).

Tests used:
[1] = molecular target: Ig-CD95L (extracellular region of CD95L fused to a dimerization domain (Ig) of the LIF receptor gp190) (UniProt P48023); assay: SEC; gel filtration analysis, unpublished data
[2] = molecular target: the molecule itself; assay: SEC; size exclusion on S-200-HR Sephacryl columns; fractions harvested and cl-CD95L dosed by ELISA

Chain of Ig-CD95L (extracellular region of CD95L fused to a dimerization domain (Ig) of the LIF receptor gp190) (from UniProt P48023 105-281) (ligand) (P48023 whole entry, the tested form may be a part): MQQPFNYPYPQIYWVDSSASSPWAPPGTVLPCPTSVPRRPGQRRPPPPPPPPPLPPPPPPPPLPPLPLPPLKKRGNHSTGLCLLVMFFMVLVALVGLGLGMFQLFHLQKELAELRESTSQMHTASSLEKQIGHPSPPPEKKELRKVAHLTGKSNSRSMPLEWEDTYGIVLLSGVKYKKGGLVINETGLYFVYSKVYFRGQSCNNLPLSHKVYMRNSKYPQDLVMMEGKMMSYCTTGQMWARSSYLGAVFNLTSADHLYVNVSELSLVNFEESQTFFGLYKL

stoichiometry N [1]	Molecule	stoichiometry N [2]
12	Ig-CD95L (extracellular region of CD95L fused to a dimerization domain (Ig) of the LIF receptor gp190) (from UniProt P48023 105-281) (ligand)	–
–	metalloprotease-cleaved CD95L (ligand, UniProt P48023 127-281, looked up, In the functional row the CD95L is the soluble ligand in sera of SLE patients, not the 293-made preparation; also called cl-CD95L; naturally processed CD95L; source: 293 cells transfected with wild type CD95L cDNA; exosome-free supernatant, concentrated (10 kDa cut-off) and dialyzed against PBS) LEKQIGHPSPPPEKKELRKVAHLTGKSNSRSMPLEWEDTYGIVLLSGVKYKKGGLVINETGLYFVYSKVYFRGQSCNNLPLSHKVYMRNSKYPQDLVMMEGKMMSYCTTGQMWARSSYLGAVFNLTSADHLYVNVSELSLVNFEESQTFFGLYKL	3
